Results taken from publication PMC5704897 (Molecular cell, 2006).
Where two headings read alike, the source gives them in different places. Blank lines part the entries; values can stand above or below the molecule they belong to.

Experiments:
Test in all cases: native MS
[1] = biological target: human Cdc37 (human) (UniProt Q16543)
[2] = biological target: His6-tagged kinase domain of B-Raf (human) (UniProt P15056)
[3] = biological target: human Cdc37 (human) (UniProt Q16543); remark: listed apart in the source
[4] = biological target: T1, human Cdc37 (human), Q16543; details: remark: other sources report otherwise
T1 chain: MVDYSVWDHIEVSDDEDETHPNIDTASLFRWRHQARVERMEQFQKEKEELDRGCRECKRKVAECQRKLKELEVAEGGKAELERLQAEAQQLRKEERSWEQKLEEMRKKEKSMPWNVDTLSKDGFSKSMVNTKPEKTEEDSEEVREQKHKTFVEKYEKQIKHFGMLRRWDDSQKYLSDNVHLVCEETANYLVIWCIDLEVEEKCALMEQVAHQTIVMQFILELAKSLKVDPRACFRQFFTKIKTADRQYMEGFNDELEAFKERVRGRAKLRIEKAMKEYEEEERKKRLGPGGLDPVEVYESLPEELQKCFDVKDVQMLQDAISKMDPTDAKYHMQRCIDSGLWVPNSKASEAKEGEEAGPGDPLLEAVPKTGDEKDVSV

[5] = biological target: His6-tagged kinase domain of B-Raf (human, UniProt P15056 457-717)
His6-tagged kinase domain of B-Raf, sequence (P15056 457-717): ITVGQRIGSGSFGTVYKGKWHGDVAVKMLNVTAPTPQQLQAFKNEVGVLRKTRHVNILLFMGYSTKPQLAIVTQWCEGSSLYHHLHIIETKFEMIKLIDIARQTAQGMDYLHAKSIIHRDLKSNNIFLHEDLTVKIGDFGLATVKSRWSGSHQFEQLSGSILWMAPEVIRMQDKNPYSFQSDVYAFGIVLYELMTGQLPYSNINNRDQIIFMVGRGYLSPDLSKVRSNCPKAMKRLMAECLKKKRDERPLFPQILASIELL

His6-tagged kinase domain of B-Raf (human), sequence (P15056 457-717): as above

stoichiometry N (Hsp90 per Cdc37) [1]: 2
stoichiometry N (Hsp90 per B-Raf) [2]: 2
stoichiometry N (Hsp90 per Cdc37) [3]: 2
Molecule: Spodoptera frugiperda Hsp90 homologue (natural protein)

stoichiometry N (Cdc37 chains in the oligomer) [4]: 2
B1: human Cdc37, Q16543 1-378 (natural protein)
chain: T1 chain
modifications: here or on the partner: phosphoserine at 13 (pSer 13); phosphoserine at 13 (pSer 13)

stoichiometry N [5]: 1 Cdc37 per B-Raf
B2: human Cdc37 (natural protein, UniProt Q16543 1-378, looked up)
chain: T1 chain
modifications: phosphoserine at 13 (pSer 13)
